# Test results as given in paper PMC9036094, “Antigen-derived peptides engage the ER stress sensor IRE1α to curb dendritic cell cross-presentation” (The Journal of Cell Biology, 2022).
# B1: ovalbumin: classical protein antigen ovalbumin (Sigma-Aldrich) (protein)
# chain: MGSIGAASMEFCFDVFKELKVHHANENIFYCPIAIMSALAMVYLGAKDSTRTQINKVVRFDKLPGFGDSIEAQCGTSVNVHSSLRDILNQITKPNDVYSFSLASRLYAEERYPILPEYLQCVKELYRGGLEPINFQTAADQARELINSWVESQTNGIIRNVLQPSSVDSQTAMVLVNAIVFKGLWEKAFKDEDTQAMPFRVTEQESKPVQMMYQIGLFRVASMASEKMKILELPFASGTMSMLVLLPDEVSGLEQLESIINFEKLTEWTSSNVMEERKIKVYLPRMKMEEKYNLTSVLMAMGITDVFSSSANLSGISSAESLKISQAVHAAHAEINEAGREVVGSAEAGVDAASVSEEFRADHPFLFCIKHIATNAVLFFGRCVSP
# Test system: PERK (ATF4, CHOP) in BMDCs
# Assay: PERK activation in BMDCs (immunoblot of ATF4 and CHOP)
# Assay type: cell-based, mouse
# Conditions: MG132 5 μM or ovalbumin 500 μg/ml, in words
# Procedure: Figure S1. Antigen pulsing of BMDCs activates IRE1α. (A) BMDCs were treated with MG132 (5 μM) or ovalbumin (500 μg/ml) for indicated time points and analyzed by IB. (B) BMDCs were pulsed with ovalbumin (500 μg/ml) and G9668 (3 μM) for indicated time periods and analyzed by IB. (C) Molecular structure, potency, and kinase selectivity of G9668. (D) Schematic representation of G9668 interaction with 220 kinases at 1 μM. Size and color of circles represent interaction strength. Analysis was conducted by KinomeScan. (E) BMDCs were pulsed for 4 h with APC-tagged ovalbumin or soluble CD4-Fc protein (500 μg/ml) with amiloride (10 μM); uptake of protein was assayed by flow cytometry (n = 3). (F) WT or MyD88 KO Flt3L-derived BMDCs were pulsed with ovalbumin (500 μg/ml) or soluble CD4-Fc protein (500 μg/ml), or treated with LPS (10 μg/ml) for 4 h and analyzed by IB. (G) MEFs and BMDCs were pulsed with ovalbumin or treated with Tg (100 nM) for 4 h and analyzed by IB. Images in A, B, F, and G represent at least two similar experiments, and molecular weights represent kD; E bar graphs represent mean ± SD from three independent biological repeats. Analysis for E was performed using unpaired, two-tailed t test; *, P ≤ 0.05; **, P ≤ 0.01. Source data are available for this figure: SourceData FS1. […]
molecule,measurement,value
B1,PERK activation,did not show a measurable response
